# In patent US6416987B1, “Mutants of thymidylate synthase and uses thereof” (Sloan Kettering Institute for Cancer Research, priority 1997, dated 2002):
# “Also recorded” adds a separate entry of the source. Like-named read-outs stand apart in the source and are kept apart here.
# Legend:
# [1] = target: human TS (Homo sapiens, UniProt P04818, Y33H); conditions: vs wild-type TS; cited from earlier work
# [2] = tested on: Mouse TS-negative cells (FSthy21); assay: Rescue of TS-negative cells by transfection of human TS cDNAs; format: cell-based; conditions: for FM3A TS cells surviving by transfection: selective medium without thymidine; for TS catalytic function / complementation of growth of TS-negative cells: selective medium lacking thymidine
# From the text: Mouse TS-negative cells (FSthy21) were transfected with a plasmid (pcDNA3hTS*) encoding wild-type or a various mutant human TS enzyme by standard DOTAP transfection procedures. The host cells are deficient in TS, which are unable to survive without exogenous thymidine. […] In contrast, cells were unable to survive with transfection of other 11 human TS variants. For each surviving transfectant, at least 12 individual clones were isolated by soft agar or limiting dilution in 96-well plates. Those clones were expanded to cell lines by growth in normal media. Three cell clones for each transfectant were randomly selected for drug sensitivity assay.
# [3] = tested on: human thymidylate synthase; assay: Kinetic parameters of wild-type and mutant human thymidylate synthases; format: biochemical
# Protocol: TS activity was monitored spectrophotometrically at 340 nm as described (Wahba et al., 1961). Activity was determined at 30° C. The assay mixture contained 50 mM Tris.HCl, pH 7.4, 25 mM MgCl2, 6.5 mM formadehyde, 1 mM EDTA, 75 mM BME and 100 μM dUMP, CH2H4folate (100 μM) was added to initiate the reaction. Black cuvettes lacked CH2H4folate. A unit of activity is defined as the amount of enzyme required to convert 1 μmol of dUMP to dTMP/minutes at 30° C. Protein was determined from OD280=0.87×10^5 M^−1 cm^−1, which is equivalent to 1.43 OD280/mg of protein.
# Michaelis constants (Km's) for CH2H4folate and dUMP were determined from initial velocity measurements, which were obtained by measuring the change in OD340 with a Shimadzu UV-2101 PC spectrophotometer. […] Steady-state kinetic parameters were subsequently obtained by a nonlinear least-squares fit of the data to the Michaelis-Menten equation using a computer program. The kcats were calculated by dividing Vmax by the estimated concentration of enzyme used in the reaction.
# [4] = CH2H4folate 3 mM, read-out: Km (dUMP)
# [5] = dUMP fixed at 200 μM, read-out: Km (CH2H4folate)
# human TS, sequence (P04818 whole entry Y33H): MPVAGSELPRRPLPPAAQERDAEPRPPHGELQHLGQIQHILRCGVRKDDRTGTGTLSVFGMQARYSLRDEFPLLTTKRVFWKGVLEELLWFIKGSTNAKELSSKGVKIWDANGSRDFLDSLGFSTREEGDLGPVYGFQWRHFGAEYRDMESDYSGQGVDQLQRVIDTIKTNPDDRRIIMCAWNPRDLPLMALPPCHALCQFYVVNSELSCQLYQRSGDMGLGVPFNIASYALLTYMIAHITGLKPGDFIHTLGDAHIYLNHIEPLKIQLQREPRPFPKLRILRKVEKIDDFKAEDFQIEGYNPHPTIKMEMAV
Molecule,FM3A TS cells surviving by transfection [2],TS catalytic function / complementation of growth of TS-negative cells [2],kcat [3],"Km [3, 4]","Km [3, 5]",also measured
"Tyr33 to His33: literature human TS mutant found in a human colon tumor cell line (protein, UniProt P04818 2-313, looked up, variant Y33H) Thymidylate synthase: PVAGSELPRRPLPPAAQERDAEPRPPHGELQHLGQIQHILRCGVRKDDRTGTGTLSVFGMQARYSLRDEFPLLTTKRVFWKGVLEELLWFIKGSTNAKELSSKGVKIWDANGSRDFLDSLGFSTREEGDLGPVYGFQWRHFGAEYRDMESDYSGQGVDQLQRVIDTIKTNPDDRRIIMCAWNPRDLPLMALPPCHALCQFYVVNSELSCQLYQRSGDMGLGVPFNIASYALLTYMIAHITGLKPGDFIHTLGDAHIYLNHIEPLKIQLQREPRPFPKLRILRKVEKIDDFKAEDFQIEGYNPHPTIKMEMAV",,,,,,drop in kcat [1]: 8 fold
"pcDNA3hTS271: human TS mutant Ile108→Glu (protein, UniProt P04818 2-313, looked up, variant I108E) Thymidylate synthase: PVAGSELPRRPLPPAAQERDAEPRPPHGELQYLGQIQHILRCGVRKDDRTGTGTLSVFGMQARYSLRDEFPLLTTKRVFWKGVLEELLWFIKGSTNAKELSSKGVKEWDANGSRDFLDSLGFSTREEGDLGPVYGFQWRHFGAEYRDMESDYSGQGVDQLQRVIDTIKTNPDDRRIIMCAWNPRDLPLMALPPCHALCQFYVVNSELSCQLYQRSGDMGLGVPFNIASYALLTYMIAHITGLKPGDFIHTLGDAHIYLNHIEPLKIQLQREPRPFPKLRILRKVEKIDDFKAEDFQIEGYNPHPTIKMEMAV",no,,,,,
"pcDNA3hTS270: human TS mutant Ile108→Gly (protein, UniProt P04818 2-313, looked up, variant I108G) Thymidylate synthase: PVAGSELPRRPLPPAAQERDAEPRPPHGELQYLGQIQHILRCGVRKDDRTGTGTLSVFGMQARYSLRDEFPLLTTKRVFWKGVLEELLWFIKGSTNAKELSSKGVKGWDANGSRDFLDSLGFSTREEGDLGPVYGFQWRHFGAEYRDMESDYSGQGVDQLQRVIDTIKTNPDDRRIIMCAWNPRDLPLMALPPCHALCQFYVVNSELSCQLYQRSGDMGLGVPFNIASYALLTYMIAHITGLKPGDFIHTLGDAHIYLNHIEPLKIQLQREPRPFPKLRILRKVEKIDDFKAEDFQIEGYNPHPTIKMEMAV",no,,,,,
"pcDNA3hTS272: human TS mutant Ile108→Asn (protein, UniProt P04818 2-313, looked up, variant I108N) Thymidylate synthase: PVAGSELPRRPLPPAAQERDAEPRPPHGELQYLGQIQHILRCGVRKDDRTGTGTLSVFGMQARYSLRDEFPLLTTKRVFWKGVLEELLWFIKGSTNAKELSSKGVKNWDANGSRDFLDSLGFSTREEGDLGPVYGFQWRHFGAEYRDMESDYSGQGVDQLQRVIDTIKTNPDDRRIIMCAWNPRDLPLMALPPCHALCQFYVVNSELSCQLYQRSGDMGLGVPFNIASYALLTYMIAHITGLKPGDFIHTLGDAHIYLNHIEPLKIQLQREPRPFPKLRILRKVEKIDDFKAEDFQIEGYNPHPTIKMEMAV",no,,,,,
D49G: human TS mutant Asp49→Gly (protein) MPVAGSELPRRPLPPAAQERDAEPRPPHGELQYLGQIQHILRCGVRKDGRTGTGTLSVFGMQARYSLRDEFPLLTTKRVFWKGVLEELLWFIKGSTNAKELSSKGVKIWDANGSRDFLDSLGFSTREEGDLGPVYGFQWRHFGAEYRDMESDYSGQGVDQLQRVIDTIKTNPDDRRIIMCAWNPRDLPLMALPPCHALCQFYVVNSELSCQLYQRSGDMGLGVPFNIASYALLTYMIAHITGLKPGDFIHTLGDAHIYLNHIEPLKIQLQREPRPFPKLRILRKVGKIDDFKAEDFQIEGYNPHPTIKMEMAV,yes,able to complement growth; also recorded: retain TS catalytic function; also recorded: able to allow growth,0.16 s⁻¹,12 µM,122 µM,increase of Km for CH2H4folate over wild-type [3]: 4 fold; increase of Km for dUMP over wild-type [3]: 4 fold; kcat lower than wild-type TS [3]: 3 fold
Q214R: human TS mutant Gln214→Arg (protein) MPVAGSELPRRPLPPAAQERDAEPRPPHGELQYLGQIQHILRCGVRKDDRTGTGTLSVFGMQARYSLRDEFPLLTTKRVFWKGVLEELLWFIKGSTNAKELSSKGVKIWDANGSRDFLDSLGFSTREEGDLGPVYGFQWRHFGAEYRDMESDYSGQGVDQLQRVIDTIKTNPDDRRIIMCAWNPRDLPLMALPPCHALCQFYVVNSELSCQLYRRSGDMGLGVPFNIASYALLTYMIAHITGLKPGDFIHTLGDAHIYLNHIEPLKIQLQREPRPFPKLRILRKVGKIDDFKAEDFQIEGYNPHPTIKMEMAV,no,,,,,
I108A: human TS mutant Ile108→Ala (protein) MPVAGSELPRRPLPPAAQERDAEPRPPHGELQYLGQIQHILRCGVRKDDRTGTGTLSVFGMQARYSLRDEFPLLTTKRVFWKGVLEELLWFIKGSTNAKELSSKGVKAWDANGSRDFLDSLGFSTREEGDLGPVYGFQWRHFGAEYRDMESDYSGQGVDQLQRVIDTIKTNPDDRRIIMCAWNPRDLPLMALPPCHALCQFYVVNSELSCQLYQRSGDMGLGVPFNIASYALLTYMIAHITGLKPGDFIHTLGDAHIYLNHIEPLKIQLQREPRPFPKLRILRKVGKIDDFKAEDFQIEGYNPHPTIKMEMAV,yes,able to complement growth; also recorded: functional,0.22 s⁻¹,15 µM,746 µM,increase of Km for CH2H4folate over wild-type [3]: 22 fold; increase of Km for dUMP over wild-type [3]: 4 fold; kcat lower than wild-type TS [3]: 3 fold
"wt: wild-type human thymidylate synthase (recombinant, Pro2 to Leu2 codon modification) (protein, listed as Homo sapiens, Wild type human thymidylate synthase amino acid sequence (Genbank Accession number NP001062)) MPVAGSELPRRPLPPAAQERDAEPRPPHGELQYLGQIQHILRCGVRKDDRTGTGTLSVFGMQARYSLRDEFPLLTTKRVFWKGVLEELLWFIKGSTNAKELSSKGVKIWDANGSRDFLDSLGFSTREEGDLGPVYGFQWRHFGAEYRDMESDYSGQGVDQLQRVIDTIKTNPDDRRIIMCAWNPRDLPLMALPPCHALCQFYVVNSELSCQLYQRSGDMGLGVPFNIASYALLTYMIAHITGLKPGDFIHTLGDAHIYLNHIEPLKIQLQREPRPFPKLRILRKVGKIDDFKAEDFQIEGYNPHPTIKMEMAV",yes,able to complement growth,0.68 s⁻¹,4.4 µM,32.4 µM,
F225W: human TS mutant Phe225→Trp (protein) MPVAGSELPRRPLPPAAQERDAEPRPPHGELQYLGQIQHILRCGVRKDDRTGTGTLSVFGMQARYSLRDEFPLLTTKRVFWKGVLEELLWFIKGSTNAKELSSKGVKIWDANGSRDFLDSLGFSTREEGDLGPVYGFQWRHFGAEYRDMESDYSGQGVDQLQRVIDTIKTNPDDRRIIMCAWNPRDLPLMALPPCHALCQFYVVNSELSCQLYQRSGDMGLGVPWNIASYALLTYMIAHITGLKPGDFIHTLGDAHIYLNHIEPLKIQLQREPRPFPKLRILRKVGKIDDFKAEDFQIEGYNPHPTIKMEMAV,yes,able to complement growth; also recorded: active enzymes,2.3 s⁻¹,3.6 µM,165 µM,increase of Km for CH2H4folate over wild-type [3]: 4 fold
F59L: human TS mutant Phe59→Leu (protein) MPVAGSELPRRPLPPAAQERDAEPRPPHGELQYLGQIQHILRCGVRKDDRTGTGTLSVLGMQARYSLRDEFPLLTTKRVFWKGVLEELLWFIKGSTNAKELSSKGVKIWDANGSRDFLDSLGFSTREEGDLGPVYGFQWRHFGAEYRDMESDYSGQGVDQLQRVIDTIKTNPDDRRIIMCAWNPRDLPLMALPPCHALCQFYVVNSELSCQLYQRSGDMGLGVPFNIASYALLTYMIAHITGLKPGDFIHTLGDAHIYLNHIEPLKIQLQREPRPFPKLRILRKVGKIDDFKAEDFQIEGYNPHPTIKMEMAV,no,,,,,
L221R: human TS mutant Leu221→Arg (protein) MPVAGSELPRRPLPPAAQERDAEPRPPHGELQYLGQIQHILRCGVRKDDRTGTGTLSVFGMQARYSLRDEFPLLTTKRVFWKGVLEELLWFIKGSTNAKELSSKGVKIWDANGSRDFLDSLGFSTREEGDLGPVYGFQWRHFGAEYRDMESDYSGQGVDQLQRVIDTIKTNPDDRRIIMCAWNPRDLPLMALPPCHALCQFYVVNSELSCQLYQRSGDMGRGVPFNIASYALLTYMIAHITGLKPGDFIHTLGDAHIYLNHIEPLKIQLQREPRPFPKLRILRKVGKIDDFKAEDFQIEGYNPHPTIKMEMAV,no,,,,,
